Results on one molecule are retold here after publication PMC10528708.

This data set has as its target T1, CHF-1Flu (tomato aspermy virus).
T1 chain: RKRHKLNR
As to the kind of experiment: fluorescence polarization.

The Kd is a measure of binding affinity in units of concentration. Read a low Kd as higher affinity.

B1: d(CTG)10 (structured_DNA)
DNA: CTGCTGCTGCTGCTGCTGCTGCTGCTGCTG
With B1, binding was put at a Kd of 440 ± 79 nM.
